In this assay the target is human S100A5 (hA5) (human) (UniProt P33763). The assay can be described thus: ITC. In general terms: ITC needs no label: the signal is the heat of the interaction.
UniProt P33763, sequence (P33763 whole entry): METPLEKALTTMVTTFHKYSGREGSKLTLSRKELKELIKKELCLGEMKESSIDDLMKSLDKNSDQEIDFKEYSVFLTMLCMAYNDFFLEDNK

By Kd is commonly meant the concentration at which binding is half-saturated. The molecule GAGGERWQRVLLSLAEDV [α-1-syn peptide (fragment of human α-1-syntrophin)] showed a Kd of 4.8 µM and a dH (kcal · mol^−1) of -4.5.

The values are drawn from publication doi:10.1101/2020.06.02.131086.
